# Measured values as given in patent publication US20130157953A1, “TREATMENT OF CARDIAC CONDITIONS” (Zealand Pharma A/S, priority 2010, published 2013).
# Numbered stars: 1 amine (or outer) side, 2 acyl side, 3 side chain; on linkers, the order of the positions; unused ones are H or OH. Bridge positions count the residues as written; N and C are the ends. Square brackets hold non-standard residues; d marks the D form. Side chains are listed from the residue outwards. * marks the point of attachment. γGlu = O=C(O)[C@H](CCC(=O)[*:2])N[*:1]; Palmitoyl = CCCCCCCCCCCCCCCC(=O)*; Aib = CC(C)(N)C(=O)O
# Columns and labels:
# [1] = molecular target: human glucagon-like peptide 1 receptor (GLP-1R) (human, UniProt P43220 24-463); test: cell-based or functional assay
# [2] = molecular target: human glucagon receptor (Glucagon-R) (human, UniProt P47871 26-477); test: cell-based or functional assay
# Sequence of human glucagon receptor (Glucagon-R) (P47871 26-477): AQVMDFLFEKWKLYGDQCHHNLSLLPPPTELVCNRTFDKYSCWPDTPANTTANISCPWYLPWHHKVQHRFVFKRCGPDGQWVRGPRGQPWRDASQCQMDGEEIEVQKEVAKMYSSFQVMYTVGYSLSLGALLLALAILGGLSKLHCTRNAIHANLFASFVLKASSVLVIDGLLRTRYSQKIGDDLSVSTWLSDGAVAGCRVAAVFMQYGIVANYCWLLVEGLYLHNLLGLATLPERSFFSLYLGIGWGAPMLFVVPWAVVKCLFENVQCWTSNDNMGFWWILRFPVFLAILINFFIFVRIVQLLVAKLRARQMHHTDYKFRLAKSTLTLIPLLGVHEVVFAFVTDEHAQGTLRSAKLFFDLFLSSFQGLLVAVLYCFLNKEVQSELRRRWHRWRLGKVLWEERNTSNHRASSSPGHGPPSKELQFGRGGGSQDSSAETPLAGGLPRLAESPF
Binder,"EC50 (nM) GLP-1R; cAMP content, HEK293 cells expressing human GLP-1R [1] [nM]","EC50 (nM) GuR; cAMP content, HEK293 cells expressing the human glucagon receptor [2] [nM]"
H-HSQGTFTSDYSKYLDSKAAHDFVEWLK([γGlu-Palmitoyl])RA-NH2 (SMILES CCCCCCCCCCCCCCCC(=O)N[C@@H](CCC(=O)NCCCC[C@H](NC(=O)[C@H](CC(C)C)NC(=O)[C@H](Cc1c[nH]c2ccccc12)NC(=O)[C@H](CCC(=O)O)NC(=O)[C@@H](NC(=O)[C@H](Cc1ccccc1)NC(=O)[C@H](CC(=O)O)NC(=O)[C@H](Cc1c[nH]cn1)NC(=O)[C@H](C)NC(=O)[C@H](C)NC(=O)[C@H](CCCCN)NC(=O)[C@H](CO)NC(=O)[C@H](CC(=O)O)NC(=O)[C@H](CC(C)C)NC(=O)[C@H](Cc1ccc(O)cc1)NC(=O)[C@H](CCCCN)NC(=O)[C@H](CO)NC(=O)[C@H](Cc1ccc(O)cc1)NC(=O)[C@H](CC(=O)O)NC(=O)[C@H](CO)NC(=O)[C@@H](NC(=O)[C@H](Cc1ccccc1)NC(=O)[C@@H](NC(=O)CNC(=O)[C@H](CCC(N)=O)NC(=O)[C@H](CO)NC(=O)[C@@H](N)Cc1c[nH]cn1)[C@@H](C)O)[C@@H](C)O)C(C)C)C(=O)N[C@@H](CCCNC(=N)N)C(=O)N[C@@H](C)C(N)=O)C(=O)O) [Compound 203],0.57,0.22
H-HSQGTFTSDYSKYLDSKAAHDFVEWLLKA-NH2 (lactam 24-28; SMILES CC(C)C[C@@H]1NC(=O)[C@H](CC(C)C)NC(=O)[C@H](Cc2c[nH]c3ccccc23)NC(=O)[C@@H](NC(=O)[C@@H](NC(=O)[C@H](Cc2ccccc2)NC(=O)[C@H](CC(=O)O)NC(=O)[C@H](Cc2c[nH]cn2)NC(=O)[C@H](C)NC(=O)[C@H](C)NC(=O)[C@H](CCCCN)NC(=O)[C@H](CO)NC(=O)[C@H](CC(=O)O)NC(=O)[C@H](CC(C)C)NC(=O)[C@H](Cc2ccc(O)cc2)NC(=O)[C@H](CCCCN)NC(=O)[C@H](CO)NC(=O)[C@H](Cc2ccc(O)cc2)NC(=O)[C@H](CC(=O)O)NC(=O)[C@H](CO)NC(=O)[C@@H](NC(=O)[C@H](Cc2ccccc2)NC(=O)[C@@H](NC(=O)CNC(=O)[C@H](CCC(N)=O)NC(=O)[C@H](CO)NC(=O)[C@@H](N)Cc2c[nH]cn2)[C@@H](C)O)[C@@H](C)O)C(C)C)CCC(=O)NCCCC[C@@H](C(=O)N[C@@H](C)C(N)=O)NC1=O) [Compound 261],0.03,0.07
H-HSQGTFTSDYSKYLDSK([γGlu-Palmitoyl])AAHDFVEWLLRA-NH2 (SMILES CCCCCCCCCCCCCCCC(=O)N[C@@H](CCC(=O)NCCCC[C@H](NC(=O)[C@H](CO)NC(=O)[C@H](CC(=O)O)NC(=O)[C@H](CC(C)C)NC(=O)[C@H](Cc1ccc(O)cc1)NC(=O)[C@H](CCCCN)NC(=O)[C@H](CO)NC(=O)[C@H](Cc1ccc(O)cc1)NC(=O)[C@H](CC(=O)O)NC(=O)[C@H](CO)NC(=O)[C@@H](NC(=O)[C@H](Cc1ccccc1)NC(=O)[C@@H](NC(=O)CNC(=O)[C@H](CCC(N)=O)NC(=O)[C@H](CO)NC(=O)[C@@H](N)Cc1c[nH]cn1)[C@@H](C)O)[C@@H](C)O)C(=O)N[C@@H](C)C(=O)N[C@@H](C)C(=O)N[C@@H](Cc1c[nH]cn1)C(=O)N[C@@H](CC(=O)O)C(=O)N[C@@H](Cc1ccccc1)C(=O)N[C@H](C(=O)N[C@@H](CCC(=O)O)C(=O)N[C@@H](Cc1c[nH]c2ccccc12)C(=O)N[C@@H](CC(C)C)C(=O)N[C@@H](CC(C)C)C(=O)N[C@@H](CCCNC(=N)N)C(=O)N[C@@H](C)C(N)=O)C(C)C)C(=O)O) [Compound 262],0.11,0.12
H-HSQGTFTSDYSKYLDERRAQDFVWLMNT-NH2 (lactam 12-16; SMILES CSCC[C@H](NC(=O)[C@H](CC(C)C)NC(=O)[C@H](Cc1c[nH]c2ccccc12)NC(=O)[C@@H](NC(=O)[C@H](Cc1ccccc1)NC(=O)[C@H](CC(=O)O)NC(=O)[C@H](CCC(N)=O)NC(=O)[C@H](C)NC(=O)[C@H](CCCNC(=N)N)NC(=O)[C@H](CCCNC(=N)N)NC(=O)[C@@H]1CCC(=O)NCCCC[C@H](NC(=O)[C@H](CO)NC(=O)[C@H](Cc2ccc(O)cc2)NC(=O)[C@H](CC(=O)O)NC(=O)[C@H](CO)NC(=O)[C@@H](NC(=O)[C@H](Cc2ccccc2)NC(=O)[C@@H](NC(=O)CNC(=O)[C@H](CCC(N)=O)NC(=O)[C@H](CO)NC(=O)[C@@H](N)Cc2c[nH]cn2)[C@@H](C)O)[C@@H](C)O)C(=O)N[C@@H](Cc2ccc(O)cc2)C(=O)N[C@@H](CC(C)C)C(=O)N[C@@H](CC(=O)O)C(=O)N1)C(C)C)C(=O)N[C@@H](CC(N)=O)C(=O)N[C@H](C(N)=O)[C@@H](C)O) [Compound 259],0.04,0.03
H-HSQGTFTSDYSRYLDERRAQDFVWLMNT-NH2 [Compound 258],0.07,0.06
H-H[Aib]QGTFTSDYSKYLDSKAAHDFVEWLLRA-NH2 (SMILES CC(C)C[C@H](NC(=O)[C@H](CC(C)C)NC(=O)[C@H](Cc1c[nH]c2ccccc12)NC(=O)[C@H](CCC(=O)O)NC(=O)[C@@H](NC(=O)[C@H](Cc1ccccc1)NC(=O)[C@H](CC(=O)O)NC(=O)[C@H](Cc1c[nH]cn1)NC(=O)[C@H](C)NC(=O)[C@H](C)NC(=O)[C@H](CCCCN)NC(=O)[C@H](CO)NC(=O)[C@H](CC(=O)O)NC(=O)[C@H](CC(C)C)NC(=O)[C@H](Cc1ccc(O)cc1)NC(=O)[C@H](CCCCN)NC(=O)[C@H](CO)NC(=O)[C@H](Cc1ccc(O)cc1)NC(=O)[C@H](CC(=O)O)NC(=O)[C@H](CO)NC(=O)[C@@H](NC(=O)[C@H](Cc1ccccc1)NC(=O)[C@@H](NC(=O)CNC(=O)[C@H](CCC(N)=O)NC(=O)C(C)(C)NC(=O)[C@@H](N)Cc1c[nH]cn1)[C@@H](C)O)[C@@H](C)O)C(C)C)C(=O)N[C@@H](CCCNC(=N)N)C(=O)N[C@@H](C)C(N)=O) [Compound 45],0.08,0.06
H-HSQGTFTSDYSAYLDSRRAQDFVWLMNT-NH2 [Compound 242],1.4,0.4
H-HSQGTFTSDYSKYLDSKAAQDFVWLMNT-NH2 [Compound 260],0.02,0.07
H-HSQGTFTSDYSKYLDKRRAEDFVWLMNT-NH2 [Compound 256],0.2,0.07
H-H[dS]QGTFTSDYSKYLDSKAAHDFVEWLLRA-NH2 (SMILES CC(C)C[C@H](NC(=O)[C@H](CC(C)C)NC(=O)[C@H](Cc1c[nH]c2ccccc12)NC(=O)[C@H](CCC(=O)O)NC(=O)[C@@H](NC(=O)[C@H](Cc1ccccc1)NC(=O)[C@H](CC(=O)O)NC(=O)[C@H](Cc1c[nH]cn1)NC(=O)[C@H](C)NC(=O)[C@H](C)NC(=O)[C@H](CCCCN)NC(=O)[C@H](CO)NC(=O)[C@H](CC(=O)O)NC(=O)[C@H](CC(C)C)NC(=O)[C@H](Cc1ccc(O)cc1)NC(=O)[C@H](CCCCN)NC(=O)[C@H](CO)NC(=O)[C@H](Cc1ccc(O)cc1)NC(=O)[C@H](CC(=O)O)NC(=O)[C@H](CO)NC(=O)[C@@H](NC(=O)[C@H](Cc1ccccc1)NC(=O)[C@@H](NC(=O)CNC(=O)[C@H](CCC(N)=O)NC(=O)[C@@H](CO)NC(=O)[C@@H](N)Cc1c[nH]cn1)[C@@H](C)O)[C@@H](C)O)C(C)C)C(=O)N[C@@H](CCCNC(=N)N)C(=O)N[C@@H](C)C(N)=O) [Compound 44],0.09,0.11
H-HSQGTFTSDYSKYLDK([γGlu-Palmitoyl])KAAHDFVEWLLRA-NH2 (SMILES CCCCCCCCCCCCCCCC(=O)N[C@@H](CCC(=O)NCCCC[C@H](NC(=O)[C@H](CC(=O)O)NC(=O)[C@H](CC(C)C)NC(=O)[C@H](Cc1ccc(O)cc1)NC(=O)[C@H](CCCCN)NC(=O)[C@H](CO)NC(=O)[C@H](Cc1ccc(O)cc1)NC(=O)[C@H](CC(=O)O)NC(=O)[C@H](CO)NC(=O)[C@@H](NC(=O)[C@H](Cc1ccccc1)NC(=O)[C@@H](NC(=O)CNC(=O)[C@H](CCC(N)=O)NC(=O)[C@H](CO)NC(=O)[C@@H](N)Cc1c[nH]cn1)[C@@H](C)O)[C@@H](C)O)C(=O)N[C@@H](CCCCN)C(=O)N[C@@H](C)C(=O)N[C@@H](C)C(=O)N[C@@H](Cc1c[nH]cn1)C(=O)N[C@@H](CC(=O)O)C(=O)N[C@@H](Cc1ccccc1)C(=O)N[C@H](C(=O)N[C@@H](CCC(=O)O)C(=O)N[C@@H](Cc1c[nH]c2ccccc12)C(=O)N[C@@H](CC(C)C)C(=O)N[C@@H](CC(C)C)C(=O)N[C@@H](CCCNC(=N)N)C(=O)N[C@@H](C)C(N)=O)C(C)C)C(=O)O) [Compound 202],0.2,0.13
H-HSQGTFTSDYSKYLDSKAAHDFVEWLLRA-NH2 [Compound 48],0.06,0.06
H-HSQGTFTSDYSKYLDRARADDFVAWLKST-NH2 [Compound 12],0.23,0.5
